# According to paper PMC4007472, “Evidence for Steric Regulation of Fibrinogen Binding to Staphylococcus aureus Fibronectin-binding Protein A (FnBPA)*” (The Journal of Biological Chemistry, 2014):
# T1: rFnBPA(189–505) (S. aureus 8325-4, UniProt P14738 189-505)
# T1 construct: Cloned in pET-YSBLIC-3C; also called N2N3 (without latch); not shown: His6, N-terminal, cleaved
# T1 sequence: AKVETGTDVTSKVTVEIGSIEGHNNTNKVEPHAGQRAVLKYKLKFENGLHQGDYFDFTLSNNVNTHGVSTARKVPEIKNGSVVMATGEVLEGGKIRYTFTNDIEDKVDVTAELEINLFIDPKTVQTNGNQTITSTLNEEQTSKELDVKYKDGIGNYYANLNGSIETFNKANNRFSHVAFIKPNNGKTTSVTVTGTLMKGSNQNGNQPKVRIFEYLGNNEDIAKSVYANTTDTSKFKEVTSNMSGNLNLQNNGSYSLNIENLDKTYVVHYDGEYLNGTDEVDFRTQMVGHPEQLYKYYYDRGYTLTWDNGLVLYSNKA
# T2: rFnBPA(189–511) (S. aureus 8325-4, UniProt P14738 189-511)
# T2 construct: Cloned in pET-YSBLIC-3C; also called N2N3 domains including the latch strand; not shown: His6, N-terminal, cleaved
# T2 sequence: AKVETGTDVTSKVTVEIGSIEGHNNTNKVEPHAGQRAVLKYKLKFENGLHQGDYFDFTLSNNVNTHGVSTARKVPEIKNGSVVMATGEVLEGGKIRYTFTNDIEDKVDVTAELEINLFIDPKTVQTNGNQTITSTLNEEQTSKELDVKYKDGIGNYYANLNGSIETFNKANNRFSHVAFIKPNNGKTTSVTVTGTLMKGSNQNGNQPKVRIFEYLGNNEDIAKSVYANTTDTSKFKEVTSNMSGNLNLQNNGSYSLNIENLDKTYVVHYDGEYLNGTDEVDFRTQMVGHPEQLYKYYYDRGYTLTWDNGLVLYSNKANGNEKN
# T3: Intact human plasma fibrinogen (Fg) (human, UniProt P02671-2 20-644; P02675 31-491; P02679-2 27-437)
# T3 construct: Fibrinogen Aα chain, human, from plasma; Fibrinogen Bβ chain, human, from plasma; Fibrinogen γ chain, human, from plasma; 341 kDa dimer of heterotrimers Aα, Bβ, γ; source: bought: Calbiochem-Merck-Millipore (human plasma, product no. 341576); in human plasma for the pulldown; copies: 2 + 2 + 2
# T3 sequence (looked up) 1: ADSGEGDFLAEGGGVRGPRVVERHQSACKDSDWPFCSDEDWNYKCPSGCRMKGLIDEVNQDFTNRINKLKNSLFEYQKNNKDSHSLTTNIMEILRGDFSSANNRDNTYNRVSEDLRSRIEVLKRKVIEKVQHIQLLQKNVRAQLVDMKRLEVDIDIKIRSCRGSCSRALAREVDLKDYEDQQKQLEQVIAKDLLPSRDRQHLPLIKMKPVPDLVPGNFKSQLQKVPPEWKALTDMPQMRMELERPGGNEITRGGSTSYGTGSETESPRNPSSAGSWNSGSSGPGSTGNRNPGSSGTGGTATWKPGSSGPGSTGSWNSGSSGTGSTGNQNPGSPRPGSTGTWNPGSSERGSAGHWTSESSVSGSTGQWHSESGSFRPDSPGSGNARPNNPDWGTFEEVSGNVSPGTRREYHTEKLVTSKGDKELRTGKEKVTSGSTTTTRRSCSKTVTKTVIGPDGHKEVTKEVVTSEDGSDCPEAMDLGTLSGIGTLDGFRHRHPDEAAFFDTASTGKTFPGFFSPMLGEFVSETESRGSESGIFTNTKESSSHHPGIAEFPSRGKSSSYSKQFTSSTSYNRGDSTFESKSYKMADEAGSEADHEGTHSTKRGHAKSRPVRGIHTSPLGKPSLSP
# T3 sequence (looked up) 2: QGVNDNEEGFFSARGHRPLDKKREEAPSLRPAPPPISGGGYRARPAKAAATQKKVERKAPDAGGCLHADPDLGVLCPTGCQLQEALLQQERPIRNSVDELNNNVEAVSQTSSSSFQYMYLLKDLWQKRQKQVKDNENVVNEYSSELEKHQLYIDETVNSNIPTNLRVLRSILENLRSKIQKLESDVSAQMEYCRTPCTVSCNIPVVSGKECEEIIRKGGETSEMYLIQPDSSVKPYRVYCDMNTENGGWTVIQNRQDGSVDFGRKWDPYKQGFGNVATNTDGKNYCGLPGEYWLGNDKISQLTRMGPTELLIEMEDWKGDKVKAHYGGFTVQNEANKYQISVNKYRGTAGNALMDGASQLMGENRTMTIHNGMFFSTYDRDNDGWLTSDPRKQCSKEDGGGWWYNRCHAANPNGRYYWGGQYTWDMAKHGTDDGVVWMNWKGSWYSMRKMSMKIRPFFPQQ
# T3 sequence (looked up) 3: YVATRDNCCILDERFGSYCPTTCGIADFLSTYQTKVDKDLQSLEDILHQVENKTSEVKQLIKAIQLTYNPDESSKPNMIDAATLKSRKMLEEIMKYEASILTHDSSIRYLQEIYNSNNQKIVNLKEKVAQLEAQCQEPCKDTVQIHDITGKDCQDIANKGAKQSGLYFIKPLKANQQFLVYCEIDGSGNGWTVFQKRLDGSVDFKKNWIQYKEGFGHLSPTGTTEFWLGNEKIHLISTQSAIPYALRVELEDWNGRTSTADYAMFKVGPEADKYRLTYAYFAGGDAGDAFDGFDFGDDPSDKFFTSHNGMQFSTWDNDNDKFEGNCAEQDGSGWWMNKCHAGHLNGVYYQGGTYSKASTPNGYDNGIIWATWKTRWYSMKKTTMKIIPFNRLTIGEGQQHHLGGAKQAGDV
# B1: NTD (30-kDa N-terminal proteolytic fragment of fibronectin) (domain or fragment)
# chain: not shown
# modifications: Limits not printed: conventional N-terminal 29-30 kDa fragment, mature residues 1-259 (1-5F1). N-terminal pyroglutamate, intradomain disulfides
# B2: FgD (monomeric ~85-kDa proteolytic fragment of Fg) (domain or fragment)
# chain 1: DNTYNRVSEDLRSRIEVLKRKVIEKVQHIQLLQKNVRAQLVDMKRLEVDIDIKIRSCRGSCSRALAREVDLKDYEDQQKQLEQVIAKDLLPSR
# chain 2: DNENVVNEYSSELEKHQLYIDETVNSNIPTNLRVLRSILENLRSKIQKLESDVSAQMEYCRTPCTVSCNIPVVSGKECEEIIRKGGETSEMYLIQPDSSVKPYRVYCDMNTENGGWTVIQNRQDGSVDFGRKWDPYKQGFGNVATNTDGKNYCGLPGEYWLGNDKISQLTRMGPTELLIEMEDWKGDKVKAHYGGFTVQNEANKYQISVNKYRGTAGNALMDGASQLMGENRTMTIHNGMFFSTYDRDNDGWLTSDPRKQCSKEDGGGWWYNRCHAANPNGRYYWGGQYTWDMAKHGTDDGVVWMNWKGSWYSMRKMSMKIRPFFPQQ
# chain 3: AIQLTYNPDESSKPNMIDAATLKSRKMLEEIMKYEASILTHDSSIRYLQEIYNSNNQKIVNLKEKVAQLEAQCQEPCKDTVQIHDITGKDCQDIANKGAKQSGLYFIKPLKANQQFLVYCEIDGSGNGWTVFQKRLDGSVDFKKNWIQYKEGFGHLSPTGTTEFWLGNEKIHLISTQSAIPYALRVELEDWNGRTSTADYAMFKVGPEADKYRLTYAYFAGGDAGDAFDGFDFGDDPSDKFFTSHNGMQFSTWDNDNDKFEGNCAEQDGSGWWMNKCHAGHLNGVYYQGGTYSKASTPNGYDNGIIWATWKTRWYSMKKTTMKIIPFNRLTIGEGQQHHLGGAKQAGDV
# modifications: Limits not printed: conventional plasmin fragment D1 (mature Aalpha 105-197, Bbeta 134-461, gamma 63-411), ends may be ragged; gammaA C-terminus (AGDV) used because the UniProt canonical entry is …
# B3: FgγC (synthetic peptide, 17 C-terminal residues of the Fg γA chain) (peptide)
# peptide: Ac-GEGQQHHLGGAKQAGDV-NH2
# notes: Fibrinogen γA chain, human, the 17 C-terminal residues; also called Fg peptide; source: synthetic peptide (Severn Biotech Ltd.)
# B4: AF1 (rFnBPA(189–550)) (domain or fragment)
# chain: AKVETGTDVTSKVTVEIGSIEGHNNTNKVEPHAGQRAVLKYKLKFENGLHQGDYFDFTLSNNVNTHGVSTARKVPEIKNGSVVMATGEVLEGGKIRYTFTNDIEDKVDVTAELEINLFIDPKTVQTNGNQTITSTLNEEQTSKELDVKYKDGIGNYYANLNGSIETFNKANNRFSHVAFIKPNNGKTTSVTVTGTLMKGSNQNGNQPKVRIFEYLGNNEDIAKSVYANTTDTSKFKEVTSNMSGNLNLQNNGSYSLNIENLDKTYVVHYDGEYLNGTDEVDFRTQMVGHPEQLYKYYYDRGYTLTWDNGLVLYSNKANGNEKNGPIIQNNKFEYKEDTIKETLTGQYDKNLVTTVEEEYDSS
# notes: Cloned in pET-YSBLIC-3C; not shown: His6, N-terminal, cleaved
# Tests used:
# Conditions in all cases: both partners purified
# AF1 (rFnBPA(189–550)) [1] = biological target: B4; assay: ITC; MicroCal VP-ITC, PBS pH 7.4, 25 °C, single-site binding model; AF1 injected into NTD; AF1 with Fg
# AF1 (rFnBPA(189–550)) [2] = biological target: B4; assay: SPR; AF1 immobilised by amine coupling, Fn (5.2–0.01 nM) or NTD as analyte; kinetic analysis, Langmuir 1:1 fit; 25 °C, HBS-P+
# rFnBPA(189–505) [3] = biological target: T1, rFnBPA(189–505); assay: SPR; FgD immobilised by amine coupling, rFnBPA constructs as analytes in 2-fold dilutions; equilibrium (steady-state) analysis; 25 °C, HBS-P+ (10 mM HEPES pH 7.4, 150 mM NaCl, 0.05% polysorbate 20)
# rFnBPA(189–511) = biological target: T2, rFnBPA(189–511); assay: as above
# AF1 (rFnBPA(189–550)) [4] = biological target: B4; assay: as above
# rFnBPA(189–505) [5] = biological target: T1, rFnBPA(189–505); assay: crystal structure; rFnBPA(189–505) 25 mg/ml with a 20-fold molar excess of FgγC; 1.83 Å
# AF1 (rFnBPA(189–550)) [6] = biological target: B4; assay: SPR; NTD immobilised on a C1 chip; 0.5 μM AF1 + 0.5 μM Fg injected together, without or with 50 μM FgγC; 25 °C, HBS-P+
# [7] = biological target: B1; assay: ITC; MicroCal VP-ITC, PBS pH 7.4, 25 °C, single-site binding model; AF1 injected into NTD; AF1 with Fg
# [8] = biological target: T3, Intact human plasma fibrinogen (Fg); assay: as above
# [9] = biological target: Human plasma fibronectin (Fn) (human, Plasma form by convention: no EDB or EDA, disulfide-linked heterodimer of a V+ chain (V89 chosen) and a V0 chain; the real material is a splice mixture. N-terminal pyroglutamate, glycosylated); assay: SPR; AF1 immobilised by amine coupling, Fn (5.2–0.01 nM) or NTD as analyte; kinetic analysis, Langmuir 1:1 fit; 25 °C, HBS-P+
binder,measurement,setting,value
B1,Kd,AF1 (rFnBPA(189–550)) [1],0.0007 µM
same,Kd,AF1 (rFnBPA(189–550)) [2],0.000393 µM
B2,Kd,rFnBPA(189–505) [3],3.7 µM
same,Kd,rFnBPA(189–511),1.5 µM
same,Kd,AF1 (rFnBPA(189–550)) [4],1.5 µM
B3,binding result,rFnBPA(189–505) [5],binds
same,binding result,AF1 (rFnBPA(189–550)) [6],binds
B4,dH,[7],-35.8 kcal/mol
same,stoichiometry N,[7],0.89
same,Kd,[8],1.1 µM
same,dH,[8],-6.1 kcal/mol
same,stoichiometry N,[8],2.11
same,Kd,[9],0.000359 µM
